Test results from patent US20180355035A1 (STCUBE, published 2018).

Assays:
[1] = target: T1, human BTN1A1 extracellular domain tagged with 6xHis (human, UniProt Q13410 27-242, N-glycosylated (removed by PNGase F in the deglycosylated control)); assay: SPR (Biacore), STC810 captured on Protein A chip, BTN1A1-ECD-His injected
T1 construct: also called hBTN1A1-His; BTN1A1-His
T1 chain: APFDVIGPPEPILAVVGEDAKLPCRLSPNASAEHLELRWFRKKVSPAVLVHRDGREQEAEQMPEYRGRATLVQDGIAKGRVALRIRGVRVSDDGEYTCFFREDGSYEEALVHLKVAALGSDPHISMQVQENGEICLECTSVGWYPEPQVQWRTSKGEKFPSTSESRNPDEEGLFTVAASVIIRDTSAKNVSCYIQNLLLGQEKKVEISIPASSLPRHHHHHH
Method: (§1) FIG. 11—Surface plasmon resonance analysis of BTN1A1-Fc and BTN1A1-His binding to immobilized STC810 MAb. FIG. 11A: Sensorgrams showing real-time binding of soluble BTN1A1-Fc protein (2-64 nM with 2-fold dilution) to STC810 immobilized on a Protein A-CM5 chip. Flow cells without any immobilized protein were used as the controls for non-specific binding and were subtracted from the presented data. FIG. 11B: Sensorgrams showing real-time binding of soluble BTN1A1-His protein (2-64 nM with 4-fold dilution) to STC810 immobilized on a Protein A-CM5 chip.
(§2) In a Biacore assay, the binding affinity between BTN1A1 and monoclonal anti-BTN1A1 antibody STC810 was measured by Surface Plasmon Resonance. Sensorgram and saturation curve of the titration of antibody by BTN1A1-ECD tagged with 6×His or human IgG1 Fc. The protein A chip (BIAcore) was coated with antibody with 600 response units (RU) and the BTN1A1 ECD was injected in the microfluidic channel. The KD values were obtained using the fitting tool of the BIAevaluation software (BIAcore). FIG. 11 provides sensorgrams showing real-time binding of soluble BTN1A1-Fc protein (2-64 nM with 2-fold dilution; FIG. 11A) or soluble BTN1A1-His protein (2-64 nM with 4-fold dilution; FIG. 11B) to STC810 immobilized on a Protein A-CM5 chip. […]

mBTNA1A-FC = target: T2, mBTNA1A-FC (Mus musculus, UniProt Q62556); assay: dot blot (layout FIG. 9B), lanes 5-8 mBTNA1A-FC = mouse BTN1A1-Fc, untreated and PNGase F treated
T2 construct: antigen of lanes 5-8 of the dot blot, used untreated and PNGase F treated; the sheet prints mBTNA1A-FC; also called mouse BTN1A1-Fc; mouse BTN1A1 tagged with human IgG1 Fc region
T2 sequence (Fc fusion chain, looked up): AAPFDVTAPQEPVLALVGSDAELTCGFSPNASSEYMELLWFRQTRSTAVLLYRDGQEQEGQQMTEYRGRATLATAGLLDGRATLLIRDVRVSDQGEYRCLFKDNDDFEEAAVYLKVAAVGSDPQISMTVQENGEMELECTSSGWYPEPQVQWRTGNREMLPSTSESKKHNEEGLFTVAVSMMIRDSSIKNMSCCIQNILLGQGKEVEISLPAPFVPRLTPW
Method: FIG. 9—Dot blot analysis of mouse anti-human BTN1A1 antibodies. […] Antigen BTN1A1-ECD tagged with 6×His was treated with PNGase F to remove N-glycosylation. Polyclonal antibodies were used for positive control. To test the species specificity of BTN1A1, human and mouse BTN1A1 tagged with human IgG1 Fc region was used (lane 1-4 with human BTN1A1-Fc and lane 5-8 with mouse BTN1A1-Fc). The term “ECD” stands for extracellular domain.
The glyco-specificity of monoclonal anti-BTN1A1 antibodies was characterized by dot blot analysis. Each anti-BTN1A1 mAb (0.5 μg/well loaded) was tested for binding to glycosylated BTN1A1 (PNGaseF “−”) or deglycosylated BTN1A1 (PNGaseF “+”). Non-specific antibody controls (“IgG,” 0.25 μg/well loaded) was also included in the assay. As shown in FIGS. 9A-9B, both glycosylated BTN1A1 protein and non-glycosylated BTN1A1 (BTN1A1 protein treated with PNGase F) were coated on the solid phase and tested for mAbs and antigens binding affinity. […] The glyco-specificity of monoclonal anti-BTN1A1 antibodies was also characterized by FACS analysis. […] After washing, fluorescence intensity (MFI) was measured to assess relative binding of antibodies to membrane bound glycosylated or unglycosylated BTN1A1.

[2] = target: T3, human BTN1A1 extracellular domain tagged with human IgG1 Fc (human, UniProt Q13410 27-242); assay: BLI (Octet), antibody loaded on sensor, single analyte concentration, 1:1 fit; column headed 'kd (1/Ms)'
T3 construct: also called hBTN1A1-Fc; BTN1A1-Fc; not shown: human IgG1 Fc region
T3 chain: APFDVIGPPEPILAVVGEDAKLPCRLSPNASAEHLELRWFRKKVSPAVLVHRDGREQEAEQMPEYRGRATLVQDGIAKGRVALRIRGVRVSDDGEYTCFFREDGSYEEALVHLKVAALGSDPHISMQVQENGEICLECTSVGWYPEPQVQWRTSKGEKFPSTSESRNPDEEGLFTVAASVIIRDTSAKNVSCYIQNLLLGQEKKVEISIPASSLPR
Method: (§3) The KD value of STC810 was also determined in an octet assay. […] Baseline was established in PBS containing 1 mg/ml bovine serum albumin (assay buffer), the association step was performed by submerging the sensors in a single concentration of analyte in assay buffer. Dissociation was performed and monitored in fresh assay buffer. All experiments were performed with sensor shaking at 1,000 rpm. ForteBio's data analysis software was used to fit the data to a 1:1 binding model to extract an association rate and dissociation rate. The KD value was calculated using the ratio kd/ka. In a typical epitope binning assay, antigen BTN1A1-Fc (10 nM) was preincubated with the second antibody (10 nM) for 1 h at room temperature. Control antibody (20 nM) was loaded onto AMC sensors (ForteBio) and remaining Fc-binding sites on the sensor were blocked with a whole mouse IgG antibody (Jackson ImmunoResearch). The sensors were exposed to preinculated antigen-second antibody mixture. Raw data was processed using ForteBio's Data Analysis Software 7.0 and the antibody pairs were assessed for competitive binding. Additional binding by the second antibody indicates an unoccupied epitope (non-competitor), while no binding indicates epitope blocking (competitor).

[3] = target: T3, human BTN1A1 extracellular domain …; assay: BLI (Octet), antibody loaded on sensor, single analyte concentration, 1:1 fit; column headed 'ka (1/s)'
Method: as §3

[4] = target: T3, human BTN1A1 extracellular domain …; assay: SPR (Biacore), STC810 captured on Protein A chip, BTN1A1-ECD-Fc injected
Method: as §1, §2

[5] = target: T4, hBTN1A1 overexpressed in PC3 prostate cancer cells (human, UniProt Q13410 27-526); assay: cell-based or functional assay
T4 sequence: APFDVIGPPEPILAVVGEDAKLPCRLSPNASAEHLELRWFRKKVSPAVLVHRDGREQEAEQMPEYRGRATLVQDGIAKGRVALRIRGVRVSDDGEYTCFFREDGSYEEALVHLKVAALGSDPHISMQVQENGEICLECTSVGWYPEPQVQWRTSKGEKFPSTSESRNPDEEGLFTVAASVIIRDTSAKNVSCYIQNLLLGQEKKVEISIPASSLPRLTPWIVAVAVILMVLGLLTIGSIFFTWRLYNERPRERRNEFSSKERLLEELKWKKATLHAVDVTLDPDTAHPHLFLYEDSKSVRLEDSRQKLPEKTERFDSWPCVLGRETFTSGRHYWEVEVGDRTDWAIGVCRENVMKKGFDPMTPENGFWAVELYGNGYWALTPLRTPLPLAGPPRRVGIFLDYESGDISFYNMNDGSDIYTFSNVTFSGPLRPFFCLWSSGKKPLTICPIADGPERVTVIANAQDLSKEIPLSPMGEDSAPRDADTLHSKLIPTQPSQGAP

[6] = target: T3, human BTN1A1 extracellular domain …; assay: SPR (Biacore), STC810 captured on Protein A chip, BTN1A1-ECD-Fc injected; column headed 'kd (1/Ms)'
Method: as §1, §2

[7] = target: T3, human BTN1A1 extracellular domain …; assay: BLI (Octet), antibody loaded on sensor, single analyte concentration, 1:1 fit
Method: as §3

[8] = target: T5, wild-type human BTN1A1 expressed in HEK293T cells (human, UniProt Q13410 27-526, fully glycosylated, as the filing says); assay: FACS on 293T cells overexpressing BTN1A1 WT or 2NQ, FITC secondary antibody
T5 construct: in whole-cell lysates in the Western blot; also called BTN1A1 WT; human BTN1A1 WT; not shown: C-terminal flag tag
T5 sequence: T4 sequence
Method: FIG. 10—FACS analysis of mouse anti-human BTN1A1 monoclonal antibodies. Human BTN1A1-2NQ (i.e. N55Q and N215Q) and human BTN1A1 WT were expressed in HEK293T cells by transient transfection. The surface expression of hBTN1A1 was measured by FACS analysis with anti-BTN1A1 monoclonal antibodies designated as STC702, STC810, STC819, STC820, STC821, STC822, STC838, and STC839. Anti-BTN1A1 polyclonal antibodies were used as a positive control.
The glyco-specificity of monoclonal anti-BTN1A1 antibodies was characterized by dot blot analysis. Each anti-BTN1A1 mAb (0.5 μg/well loaded) was tested for binding to glycosylated BTN1A1 (PNGaseF “−”) or deglycosylated BTN1A1 (PNGaseF “+”). Non-specific antibody controls (“IgG,” 0.25 μg/well loaded) was also included in the assay. As shown in FIGS. 9A-9B, both glycosylated BTN1A1 protein and non-glycosylated BTN1A1 (BTN1A1 protein treated with PNGase F) were coated on the solid phase and tested for mAbs and antigens binding affinity. […] The glyco-specificity of monoclonal anti-BTN1A1 antibodies was also characterized by FACS analysis. […] After washing, fluorescence intensity (MFI) was measured to assess relative binding of antibodies to membrane bound glycosylated or unglycosylated BTN1A1. […]

[9] = target: T1, human BTN1A1 extracellular domain …; assay: SPR (Biacore), STC810 captured on Protein A chip, BTN1A1-ECD-His injected; column headed 'kd (1/Ms)'
Method: as §1, §2

[10] = target: T3, human BTN1A1 extracellular domain …; assay: SPR (Biacore), STC810 captured on Protein A chip, BTN1A1-ECD-Fc injected; column headed 'ka (1/s)'
Method: as §1, §2

[11] = target: T1, human BTN1A1 extracellular domain …; assay: SPR (Biacore), STC810 captured on Protein A chip, BTN1A1-ECD-His injected; column headed 'ka (1/s)'
Method: as §1, §2

B1: mouse monoclonal anti-human BTN1A1 antibody STC810 (antibody, V domains shown)
VH: EVQLQQSGPELVKPGASVKISCKASGYTFTHYNMDWVKQSHGKSLEWIGYIYPSNGGTGYNQKFKSRATLTVDKSSSTAYMELHSLTSEDSAVYYCARGAYHYGSSYAYWYFDVWGAGTTVTVSS
VL: DIQMTQTTSSLSASLGDRVTISCSASQDISNYLNWYQQKPDETVKLLISYTSSLHSGVPSRFSGSGSGTDYSLTISNLAPEDIATYYCQQSSKLPFTFGSGTELEIKR
notes: also called STC838; STC810 MAb
With B1 the Kd [1] was 14.9 nM, the binding result (mBTNA1A-FC) was “no binding (tested: 0.5 µg/well)” and the kon [2] was 145000 M⁻¹ s⁻¹. The koff [3] was 0.000309 s⁻¹, the Kd [4] was 1.81 nM and the “relative apoptosis of PC3 cells at 120 h (caspase 3/7), with activated T cells, 50 µg/ml STC810” value [5] was 2 fold. The kon [6] was 98900 M⁻¹ s⁻¹, the Kd [7] was 2.12 nM and the “fold MFI on glycosylated BTN1A1 (WT) over unglycosylated BTN1A1 (2NQ)” value [8] was 5 fold. The kon [9] was 269000 M⁻¹ s⁻¹, the koff [10] was 0.00018 s⁻¹ and the koff [11] was 0.00402 s⁻¹.
